The results in this text go back to the nanobody polyreactivity screen of Harvey et al. (2022).

The nature of the series: yeast display, Sf9 membrane polyspecificity reagent, FACS + sequencing; frameworks hold sequencing errors. A digest of the protocol: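 Synthetic nanobody libraries on Saccharomyces cerevisiae BJ5465 were galactose-induced for 36–48 hours, stained 1 hour at 4 °C with 10% biotinylated, detergent-solubilized Sf9 membrane reagent and enriched on streptavidin microbeads. FACS then separated cells into low and high (top ~1%) gates by anti-HA (expression) and streptavidin (reagent binding) fluorescence. Genes were colony-PCR amplified, MiSeq 2 × 250 sequenced and CDR-length filtered. A clone's polyreactivity label is that of its gate of origin.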
Turning to “QVQLVESGGGLVQAGGSLRLSCAASGFTFYPNAMGWYRQAPGNERELVATITGSGGSTNYADSVKGRFTISRDTAKNTVYLHMNRLKPEDTAVYYCAADYAVYSFTEFNYWGQVTQVTVSS”, the “polyreactivity (PSR sort gate)” value is given as “high polyreactivity”.
With “QVQLVESGGGLVQAGGSLRLSCAASGFTFYPYAMGWYRQAPGKERELVASFTSAGGTNYADSVKGRFTISRDNAKNTVYLQMNSLKPEDTAVYYCAAKYRSRGPDYYFKSDYWGQGTQVTVSS” the entry was “low polyreactivity”.
As for “QVQLVESGGGLVQAGGSLRLSCAASGFTFYPYAMGWYRQAPGKERELVASITSAGGTNYADSVKGRFTISRDNAKNTVYLQMNSLKPEDTAVYYCAAKYRSRGPDYYFKSDYWGQGTQVTVSS”, the “polyreactivity (PSR sort gate)” value was “low polyreactivity”.
With “QVQLVESGGGLVQAGGSLRLSCAASGFTFYPYSMGWYRQAPGKERELVAAIRGSGGSTHYADSVKGRFTISRDNAKNTVYLQMNSLKPEDTAVYYCAARIRGYRQYGTYYYWGQGTQVTVSS”, the “polyreactivity (PSR sort gate)” value is on record as “high polyreactivity”.
With “QVQLVESGGGLVQAGGSLRLSCAASGFTFYQYAMGWYRQAPGKERELVAAITWNGGSTFYADSVKGRFTISRDNAKNTVYLQMNSLKPEDTAVYYCAARQYFSSYYEYDYWGQGTQVTVSS”, the “polyreactivity (PSR sort gate)” value is “high polyreactivity”.
With “QVQLVESGGGLVQAGGSLRLSCAASGFTFYQYTMGRYRQAPGKERELVATITSDGGTNYADSVKGRFTISRDNAKNTVYLQMNSLKPEDTAVYYCARDYLSPYAVDYWGQGTQVTVSS” the entry was “low polyreactivity”.
Regarding “QVQLVESGGGLVQAGGSLRLSCAASGFTFYRNAMGWSRKAPGKERELVAAISTSGGSTHYADSVKGRFTISRDNAKNTVYLQMNSLKPEDTAVYYCAKRRSIRDEFGYWGQGTQVTVSS”, the “polyreactivity (PSR sort gate)” value is “high polyreactivity”.
On to “QVQLVESGGGLVQAGGSLRLSCAASGFTFYRNAMGWYRQAPGKERELVAAISRGGRTYYADSVKGRFTISRDNAKNTVYLQMNSLKQEDTAVYYCAADFYIKYSEFDYWGQGTQVTVSS”, for which the “polyreactivity (PSR sort gate)” value was “high polyreactivity”.
For “QVQLVESGGGLVQAGGSLRLSCAASGFTFYRNAMGWYRQAPGKERELVAAITRRGGSTYYADSVKGRFTISRDNAKNTVYLQMISLKPEDTAVYYCSKSYRFPSVGPPGELDYWGQGTQVTVSS”, the “polyreactivity (PSR sort gate)” value was “high polyreactivity”.
On to “QVQLVESGGGLVQAGGSLRLSCAASGFTFYRNDIGWYRQAPGKERELVAAITFSGGITYYADSVKGRFTISRDNAKNTVYLQMNSLKAEDTAVYYCAAEGVGAARVYQGGEYNYWGQGTQVTVSS”, for which the “polyreactivity (PSR sort gate)” value was “low polyreactivity”.
Turning to “QVQLVESGGGLVQAGGSLRLSCAASGFTFYRNTMGWYRQAPGKERELVARIRSVGSTYYADSVKGRFTISRDNAKNTVFLQMNSLKREDTAVYYCAAGPVYDWRGGALRYYYWGQGTQVTVSS”, the “polyreactivity (PSR sort gate)” value was “high polyreactivity”.
For the sequence “QVQLVESGGGLVQAGGSLRLSCAASGFTFYRYAMGWYRQAPGKERELVAAISWSGGTTYYADSVKGRFTISRDNAKNTVYLQMNSLKPEDTAVYYCNARFIARSGYKVDYDYWGQGTQVTVSS”, the “polyreactivity (PSR sort gate)” value is given as “high polyreactivity”.
Take “QVQLVESGGGLVQAGGSLRLSCAASGFTFYRYAMGWYRQAPGKERELVAAITRTGSTYYADSVKGRFTISRDNAKNTVYLQMNSLKPEDTAVYYCARRSLYFPSYGLYYWGQGTQVTVSS”: the “polyreactivity (PSR sort gate)” value is listed as “high polyreactivity”.
Regarding “QVQLVESGGGLVQAGGSLRLSCAASGFTFYRYAMGWYRQAPGKERELVAAITSRGTSTYYADSVKGRFTISRDNAKNTVYLQMNSLKPEDTAVYYCAVKGYRYGTRYDYWGQGTQVTVSS”, the “polyreactivity (PSR sort gate)” value was “high polyreactivity”.
“QVQLVESGGGLVQAGGSLRLSCAASGFTFYRYAMGWYRQAPGKERELVAAITSRSGITYYADSVKGRFTISRDNAKNTVYLQMNSLKPEDTAVYYCGAYVSRSTEFDYGYWGQGTQVTVSS”: the “polyreactivity (PSR sort gate)” value is “high polyreactivity”.
“QVQLVESGGGLVQAGGSLRLSCAASGFTFYRYGMGWYRPPPGKERELVAAINNDGTTNYADSVKGRFTISRDNAKNTVYLQLNSLKPEDTAVYYCAADYYRGRYSYRYDYWGQGTQVTVSS”: the “polyreactivity (PSR sort gate)” value was “low polyreactivity”.
